Measured values reported in US20220064329A1 (Novo Nordisk, published 2022).
Changes are numbered by the printed parent chain. In names and notes the source's numbering stands.

T1: recombinant human activated Factor VII (FVIIa) (human, UniProt P08709 61-212; P08709 213-466, ten glutamate residues of the Gla domain may be gamma-carboxylated)
T1 construct: chains tethered by a disulfide bond; also called Factor VIIa; rFVIIa
T1 sequence 1: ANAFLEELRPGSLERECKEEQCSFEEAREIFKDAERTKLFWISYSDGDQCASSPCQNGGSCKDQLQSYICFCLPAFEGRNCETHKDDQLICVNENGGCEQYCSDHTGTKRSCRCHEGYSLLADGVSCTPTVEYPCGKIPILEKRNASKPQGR
T1 sequence 2: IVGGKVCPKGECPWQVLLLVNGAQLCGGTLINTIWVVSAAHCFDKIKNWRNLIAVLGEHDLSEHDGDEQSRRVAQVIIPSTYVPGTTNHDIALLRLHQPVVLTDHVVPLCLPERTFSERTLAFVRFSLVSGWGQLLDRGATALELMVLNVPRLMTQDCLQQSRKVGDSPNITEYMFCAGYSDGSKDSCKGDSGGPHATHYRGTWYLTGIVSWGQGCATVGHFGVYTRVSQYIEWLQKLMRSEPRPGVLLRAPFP

B1: VH SEQ ID NO 570 / VL SEQ ID NO 358 (antibody, IgG4, V domains shown)
VH: QVQLQESGPGLVKPSDTLSLTCAVSGYSISSDSAWSWIRQPPGKGLEWIGYIQYSGSTNYNPSLKSRVTMSRDTSKNQFSLKLSSVTAADTAVYYCARSVNYYGNSFAVGPWGQGTLVTVSS
VL: EIVLTQSPATLSLSPGERATLSCRASQGISDYLHWYQQKPGQAPRLLIKYTSQPATGIPARFSGSGSGTDFTLTISSLEPEDFAVYYCQNGHSFPLTFGQGTKLEIK
notes: humanized 11F2; IgG4 S228P/kappa
B2: VH SEQ ID NO 570 / VL SEQ ID NO 390 (antibody, IgG4, V domains shown)
VH: B1 VH
VL: B1 VL with I29V, H34A, Q42E, T51A
notes: as for B1
B3: VH SEQ ID NO 570 / VL SEQ ID NO 494 (antibody, IgG4, V domains shown)
VH: B1 VH
VL: B1 VL with I29V, T51A, F83V
notes: as for B1
B4: VH SEQ ID NO 570 / VL SEQ ID NO 486 (antibody, IgG4, V domains shown)
VH: B1 VH
VL: B1 VL with I29V, T51A, A84G
notes: as for B1
B5: VH SEQ ID NO 570 / VL SEQ ID NO 446 (antibody, IgG4, V domains shown)
VH: B1 VH
VL: B1 VL with I29V, H34A
notes: as for B1
B6: VH SEQ ID NO 570 / VL SEQ ID NO 462 (antibody, IgG4, V domains shown)
VH: B1 VH
VL: B1 VL with I29V, T51A, Q100A
notes: as for B1
B7: VH SEQ ID NO 570 / VL SEQ ID NO 422 (antibody, IgG4, V domains shown)
VH: B1 VH
VL: B1 VL with I29V, H34A, T51A, N90Q
notes: as for B1
B8: VH SEQ ID NO 570 / VL SEQ ID NO 382 (antibody, IgG4, V domains shown)
VH: B1 VH
VL: B1 VL with I29L, Q42E, T51A
notes: as for B1
B9: VH SEQ ID NO 570 / VL SEQ ID NO 398 (antibody, IgG4, V domains shown)
VH: B1 VH
VL: B1 VL with I29V, H34A, Q42E
notes: as for B1
B10: VH SEQ ID NO 570 / VL SEQ ID NO 502 (antibody, IgG4, V domains shown)
VH: B1 VH
VL: B1 VL with I29V
notes: as for B1
B11: VH SEQ ID NO 570 / VL SEQ ID NO 478 (antibody, IgG4, V domains shown)
VH: B1 VH
VL: B1 VL with I29V, T51A, N90Q
notes: as for B1
B12: VH SEQ ID NO 570 / VL SEQ ID NO 414 (antibody, IgG4, V domains shown)
VH: B1 VH
VL: B1 VL with I29V, H34A, T51A
notes: as for B1
B13: VH SEQ ID NO 570 / VL SEQ ID NO 454 (antibody, IgG4, V domains shown)
VH: B1 VH
VL: B1 VL with I29V, Q42E, T51A
notes: as for B1
B14: VH SEQ ID NO 570 / VL SEQ ID NO 430 (antibody, IgG4, V domains shown)
VH: B1 VH
VL: B1 VL with I29V, H34A, T51A, A84G
notes: as for B1
B15: VH SEQ ID NO 570 / VL SEQ ID NO 366 (antibody, IgG4, V domains shown)
VH: B1 VH
VL: B1 VL with I29L, H34A, Q42E, T51A
notes: as for B1
B16: VH SEQ ID NO 570 / VL SEQ ID NO 406 (antibody, IgG4, V domains shown)
VH: B1 VH
VL: B1 VL with I29V, H34A, T51A, Q100A
notes: as for B1
B17: VH SEQ ID NO 570 / VL SEQ ID NO 470 (antibody, IgG4, V domains shown)
VH: B1 VH
VL: B1 VL with I29V, T51A
notes: as for B1
B18: VH SEQ ID NO 570 / VL SEQ ID NO 438 (antibody, IgG4, V domains shown)
VH: B1 VH
VL: B1 VL with I29V, H34A, T51A, F83V
notes: as for B1

Target: T1, recombinant human activated Factor VII …
Test: BLI (Fortebio)

Kd [nM] | Binder
0.85 | B1
48 | B2
1.1 | B3
0.99 | B4
24 | B5
1.1 | B6
2400 | B7
1.3 | B8
29 | B9
0.92 | B10
1.9 | B11
21 | B12
1.1 | B13
16 | B14
14 | B15
20 | B16
1.1 | B17
210 | B18
